Assay results from patent EP4786492A1.
Blank lines part the entries; values can stand above or below the binder they belong to.

Key:
[1] = target: mouse DLL3 on CHO-K1-mDLL3 cells (mouse) (UniProt O88516); assay: FACS, CHO-K1-mDLL3 cells, 0.00128 nM antibody
[2] = target: DLL3 endogenously expressed on NCI-H82 cells (UniProt Q9NYJ7); assay: FACS on NCI-H82 cells; antibody 4 nM
[3] = target: mouse DLL3 on CHO-K1-mDLL3 cells (mouse) (UniProt O88516); assay: FACS, CHO-K1-mDLL3 cells, 0.16 nM antibody
[4] = target: DLL3 endogenously expressed on NCI-H82 cells (UniProt Q9NYJ7); assay: FACS on NCI-H82 cells; antibody 20 nM
[5] = target: monkey DLL3 on CHO-K1-cyno DLL3 cells (cynomolgus monkey); assay: FACS, CHO-K1-cyno DLL3 cells, 4 nM antibody
[6] = target: human DLL3 protein expressed on CHO-K1 recombinant cells (human DLL3 extracellular segment fused to EpCAM transmembrane and intracellular regions) (human) (UniProt Q9NYJ7); assay: FACS, CHO-K1 hDLL3 cells, 4 nM antibody
[7] = target: DLL3 endogenously expressed on NCI-H82 cells (UniProt Q9NYJ7); assay: FACS on NCI-H82 cells; antibody 0.8 nM
[8] = target: monkey DLL3 on CHO-K1-cyno DLL3 cells (cynomolgus monkey); assay: FACS, CHO-K1-cyno DLL3 cells, 0.16 nM antibody
[9] = target: mouse DLL3 on CHO-K1-mDLL3 cells (mouse) (UniProt O88516); assay: FACS, CHO-K1-mDLL3 cells, 0.8 nM antibody
[10] = target: monkey DLL3 on CHO-K1-cyno DLL3 cells (cynomolgus monkey); assay: FACS, CHO-K1-cyno DLL3 cells, 0.00128 nM antibody
[11] = target: monkey DLL3 on CHO-K1-cyno DLL3 cells (cynomolgus monkey); assay: FACS, CHO-K1-cyno DLL3 cells, 100 nM antibody
[12] = target: human delta-like ligand 3 (DLL3) on SHP77 cells (human) (UniProt Q9NYJ7); assay: FACS on SHP77 cells
[13] = target: human DLL3 protein (extracellular segment, His tag) (human) (UniProt Q9NYJ7); assay: SPR (Biacore 8K), antibody captured on Protein A chip, DLL3 antigen in solution, 1:1 Langmuir fit
[14] = target: DLL3 endogenously expressed on NCI-H82 cells (UniProt Q9NYJ7); assay: FACS on NCI-H82 cells; antibody 0.032 nM
[15] = target: DLL3 endogenously expressed on NCI-H82 cells (UniProt Q9NYJ7); assay: FACS on NCI-H82 cells; antibody 100 nM
[16] = target: mouse DLL3 on CHO-K1-mDLL3 cells (mouse) (UniProt O88516); assay: FACS, CHO-K1-mDLL3 cells, 4 nM antibody
[17] = target: mouse DLL3 on CHO-K1-mDLL3 cells (mouse) (UniProt O88516); assay: FACS, CHO-K1-mDLL3 cells, 20 nM antibody
[18] = target: human DLL3 protein expressed on CHO-K1 recombinant cells (human DLL3 extracellular segment fused to EpCAM transmembrane and intracellular regions) (human) (UniProt Q9NYJ7); assay: FACS, CHO-K1 hDLL3 cells, 0.0064 nM antibody
[19] = target: human DLL3 protein expressed on CHO-K1 recombinant cells (human DLL3 extracellular segment fused to EpCAM transmembrane and intracellular regions) (human) (UniProt Q9NYJ7); assay: FACS, CHO-K1 hDLL3 cells, 20 nM antibody
[20] = target: mouse DLL3 on CHO-K1-mDLL3 cells (mouse) (UniProt O88516); assay: FACS, CHO-K1-mDLL3 cells, 0.0064 nM antibody
[21] = target: human DLL3 protein expressed on CHO-K1 recombinant cells (human DLL3 extracellular segment fused to EpCAM transmembrane and intracellular regions) (human) (UniProt Q9NYJ7); assay: FACS, CHO-K1 hDLL3 cells, 0.8 nM antibody
[22] = target: monkey DLL3 on CHO-K1-cyno DLL3 cells (cynomolgus monkey); assay: FACS, CHO-K1-cyno DLL3 cells, 0.0064 nM antibody
[23] = target: human DLL1 protein (Acro, Cat. No. DL1-H52H8) (human) (UniProt O00548); assay: ELISA, coated hDLL1; maximum over 0.1, 1, 10, 100 nM antibody
[24] = target: DLL3 endogenously expressed on NCI-H82 cells (UniProt Q9NYJ7); assay: FACS on NCI-H82 cells; antibody 0.00128 nM
[25] = target: DLL3 endogenously expressed on NCI-H82 cells (UniProt Q9NYJ7); assay: FACS on NCI-H82 cells; antibody 0.0064 nM
[26] = target: mouse DLL3 on CHO-K1-mDLL3 cells (mouse) (UniProt O88516); assay: FACS, CHO-K1-mDLL3 cells, 0.032 nM antibody
[27] = target: monkey DLL3 on CHO-K1-cyno DLL3 cells (cynomolgus monkey); assay: FACS, CHO-K1-cyno DLL3 cells, 0.032 nM antibody
[28] = target: monkey DLL3 on CHO-K1-cyno DLL3 cells (cynomolgus monkey); assay: FACS, CHO-K1-cyno DLL3 cells, 20 nM antibody
[29] = target: human DLL3 protein expressed on CHO-K1 recombinant cells (human DLL3 extracellular segment fused to EpCAM transmembrane and intracellular regions) (human) (UniProt Q9NYJ7); assay: FACS, CHO-K1 hDLL3 cells, 0.032 nM antibody
[30] = target: human DLL3 protein expressed on CHO-K1 recombinant cells (human DLL3 extracellular segment fused to EpCAM transmembrane and intracellular regions) (human) (UniProt Q9NYJ7); assay: FACS, CHO-K1 hDLL3 cells, 0.00128 nM antibody
[31] = target: human DLL3 protein expressed on CHO-K1 recombinant cells (human DLL3 extracellular segment fused to EpCAM transmembrane and intracellular regions) (human) (UniProt Q9NYJ7); assay: FACS, CHO-K1 hDLL3 cells, 0.16 nM antibody
[32] = target: human DLL3 protein expressed on CHO-K1 recombinant cells (human DLL3 extracellular segment fused to EpCAM transmembrane and intracellular regions) (human) (UniProt Q9NYJ7); assay: FACS, CHO-K1 hDLL3 cells, 100 nM antibody
[33] = target: DLL3 endogenously expressed on NCI-H82 cells (UniProt Q9NYJ7); assay: FACS on NCI-H82 cells; antibody 0.16 nM
[34] = target: human DLL4 protein (Acro, Cat. No. DL4-H5227) (human) (UniProt Q9NR61); assay: ELISA, coated hDLL4; maximum over 0.1, 1, 10, 100 nM antibody
[35] = target: monkey DLL3 on CHO-K1-cyno DLL3 cells (cynomolgus monkey); assay: FACS, CHO-K1-cyno DLL3 cells, 0.8 nM antibody
[36] = target: mouse DLL3 on CHO-K1-mDLL3 cells (mouse) (UniProt O88516); assay: FACS, CHO-K1-mDLL3 cells, 100 nM antibody

Sequence of mouse DLL3 on CHO-K1-mDLL3 cells (mouse) (O88516 other isoform, or with tags, fused parts or gaps limits assumed): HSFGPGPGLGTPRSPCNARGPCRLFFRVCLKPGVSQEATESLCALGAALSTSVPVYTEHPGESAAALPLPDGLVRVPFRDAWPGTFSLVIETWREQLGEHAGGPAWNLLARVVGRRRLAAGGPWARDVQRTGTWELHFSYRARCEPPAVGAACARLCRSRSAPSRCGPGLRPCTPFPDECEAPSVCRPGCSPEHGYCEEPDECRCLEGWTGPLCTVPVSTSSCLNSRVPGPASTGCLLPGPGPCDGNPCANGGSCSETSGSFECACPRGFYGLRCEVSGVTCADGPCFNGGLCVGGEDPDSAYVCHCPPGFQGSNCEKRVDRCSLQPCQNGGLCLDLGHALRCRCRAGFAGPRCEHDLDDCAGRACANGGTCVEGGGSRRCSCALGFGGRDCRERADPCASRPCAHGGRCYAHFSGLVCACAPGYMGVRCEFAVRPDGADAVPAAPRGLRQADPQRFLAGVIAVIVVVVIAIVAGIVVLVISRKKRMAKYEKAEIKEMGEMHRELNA
Sequence of human DLL3 protein expressed on CHO-K1 recombinant cells (human DLL3 extracellular segment fused to EpCAM transmembrane and intracellular regions) (human) (Q9NYJ7 other isoform, or with tags, fused parts or gaps limits assumed): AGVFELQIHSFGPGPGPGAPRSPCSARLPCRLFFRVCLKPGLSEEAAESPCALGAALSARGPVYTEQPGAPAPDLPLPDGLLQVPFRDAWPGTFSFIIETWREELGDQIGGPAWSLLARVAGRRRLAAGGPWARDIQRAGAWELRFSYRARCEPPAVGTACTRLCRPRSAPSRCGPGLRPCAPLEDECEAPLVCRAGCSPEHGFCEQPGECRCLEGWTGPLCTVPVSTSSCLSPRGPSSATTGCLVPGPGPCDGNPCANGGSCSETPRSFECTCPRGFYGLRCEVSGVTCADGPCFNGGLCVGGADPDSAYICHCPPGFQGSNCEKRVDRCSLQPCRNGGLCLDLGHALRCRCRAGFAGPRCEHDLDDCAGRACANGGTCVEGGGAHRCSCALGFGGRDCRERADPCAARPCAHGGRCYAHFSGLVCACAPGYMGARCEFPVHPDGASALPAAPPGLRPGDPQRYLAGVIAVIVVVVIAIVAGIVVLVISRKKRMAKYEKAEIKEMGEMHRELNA
Sequence of monkey DLL3 on CHO-K1-cyno DLL3 cells (cynomolgus monkey) (chain, as listed by the source limits assumed): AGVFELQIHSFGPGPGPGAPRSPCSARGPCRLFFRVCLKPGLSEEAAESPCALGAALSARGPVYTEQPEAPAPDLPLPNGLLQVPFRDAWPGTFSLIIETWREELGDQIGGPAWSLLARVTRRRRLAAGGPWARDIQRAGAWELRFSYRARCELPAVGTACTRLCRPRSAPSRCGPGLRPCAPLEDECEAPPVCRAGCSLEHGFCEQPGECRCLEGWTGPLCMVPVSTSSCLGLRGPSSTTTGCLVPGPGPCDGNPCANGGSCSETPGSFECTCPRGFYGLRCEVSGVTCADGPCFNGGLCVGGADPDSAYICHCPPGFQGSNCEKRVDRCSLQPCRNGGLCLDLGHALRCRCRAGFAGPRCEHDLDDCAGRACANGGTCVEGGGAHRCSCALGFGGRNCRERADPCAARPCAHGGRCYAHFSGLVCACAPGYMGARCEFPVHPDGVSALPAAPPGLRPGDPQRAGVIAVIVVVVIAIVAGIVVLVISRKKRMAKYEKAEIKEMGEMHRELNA
Sequence of human DLL3 protein (extracellular segment, His tag) (human) (Q9NYJ7 27-492): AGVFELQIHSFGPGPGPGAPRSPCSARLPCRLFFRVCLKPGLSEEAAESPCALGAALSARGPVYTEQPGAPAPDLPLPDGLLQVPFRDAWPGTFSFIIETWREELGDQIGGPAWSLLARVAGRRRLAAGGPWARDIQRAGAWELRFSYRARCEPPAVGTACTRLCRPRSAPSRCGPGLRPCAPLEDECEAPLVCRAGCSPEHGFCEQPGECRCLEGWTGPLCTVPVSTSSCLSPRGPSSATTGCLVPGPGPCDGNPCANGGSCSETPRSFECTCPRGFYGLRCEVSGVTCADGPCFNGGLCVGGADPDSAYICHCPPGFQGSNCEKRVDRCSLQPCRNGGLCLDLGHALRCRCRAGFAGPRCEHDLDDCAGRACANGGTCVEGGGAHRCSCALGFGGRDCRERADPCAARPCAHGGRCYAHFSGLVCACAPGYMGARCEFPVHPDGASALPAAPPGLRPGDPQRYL
Sequence of DLL3 endogenously expressed on NCI-H82 cells (Q9NYJ7 27-618): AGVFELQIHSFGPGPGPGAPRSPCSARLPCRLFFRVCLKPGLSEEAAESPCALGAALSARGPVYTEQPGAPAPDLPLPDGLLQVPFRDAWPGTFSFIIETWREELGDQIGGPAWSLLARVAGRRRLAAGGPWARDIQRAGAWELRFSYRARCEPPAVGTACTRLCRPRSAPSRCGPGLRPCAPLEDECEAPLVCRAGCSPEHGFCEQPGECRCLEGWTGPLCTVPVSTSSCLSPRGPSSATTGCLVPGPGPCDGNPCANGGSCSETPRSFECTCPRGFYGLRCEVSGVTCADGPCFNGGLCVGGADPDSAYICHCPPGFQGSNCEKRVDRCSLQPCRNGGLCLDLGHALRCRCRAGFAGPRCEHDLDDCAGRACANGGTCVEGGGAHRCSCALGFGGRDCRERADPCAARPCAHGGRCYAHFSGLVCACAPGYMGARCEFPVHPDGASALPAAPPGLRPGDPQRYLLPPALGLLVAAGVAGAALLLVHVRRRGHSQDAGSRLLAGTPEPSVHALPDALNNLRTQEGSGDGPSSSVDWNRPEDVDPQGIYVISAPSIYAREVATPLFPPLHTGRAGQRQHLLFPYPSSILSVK
Sequence of human delta-like ligand 3 (DLL3) on SHP77 cells (human) (Q9NYJ7 27-618, stated change not applied): as the sequence (Q9NYJ7 27-618) above
Sequence of human DLL1 protein (Acro, Cat. No. DL1-H52H8) (human) (O00548 18-540 limits assumed): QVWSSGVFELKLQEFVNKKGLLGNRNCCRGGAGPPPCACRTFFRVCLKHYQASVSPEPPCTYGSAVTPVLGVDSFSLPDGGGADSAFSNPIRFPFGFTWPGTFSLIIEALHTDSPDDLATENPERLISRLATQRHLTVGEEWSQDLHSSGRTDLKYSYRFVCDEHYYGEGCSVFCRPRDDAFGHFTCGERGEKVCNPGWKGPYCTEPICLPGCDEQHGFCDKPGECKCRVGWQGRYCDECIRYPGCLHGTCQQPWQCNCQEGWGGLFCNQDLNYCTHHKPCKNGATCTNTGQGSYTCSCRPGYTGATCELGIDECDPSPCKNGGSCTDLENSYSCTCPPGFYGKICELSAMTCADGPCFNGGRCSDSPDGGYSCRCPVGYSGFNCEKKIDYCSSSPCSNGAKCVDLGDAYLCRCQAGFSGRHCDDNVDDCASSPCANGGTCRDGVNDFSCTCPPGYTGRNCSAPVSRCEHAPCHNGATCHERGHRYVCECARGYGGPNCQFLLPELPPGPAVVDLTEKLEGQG
Sequence of human DLL4 protein (Acro, Cat. No. DL4-H5227) (human) (Q9NR61 27-524 limits assumed): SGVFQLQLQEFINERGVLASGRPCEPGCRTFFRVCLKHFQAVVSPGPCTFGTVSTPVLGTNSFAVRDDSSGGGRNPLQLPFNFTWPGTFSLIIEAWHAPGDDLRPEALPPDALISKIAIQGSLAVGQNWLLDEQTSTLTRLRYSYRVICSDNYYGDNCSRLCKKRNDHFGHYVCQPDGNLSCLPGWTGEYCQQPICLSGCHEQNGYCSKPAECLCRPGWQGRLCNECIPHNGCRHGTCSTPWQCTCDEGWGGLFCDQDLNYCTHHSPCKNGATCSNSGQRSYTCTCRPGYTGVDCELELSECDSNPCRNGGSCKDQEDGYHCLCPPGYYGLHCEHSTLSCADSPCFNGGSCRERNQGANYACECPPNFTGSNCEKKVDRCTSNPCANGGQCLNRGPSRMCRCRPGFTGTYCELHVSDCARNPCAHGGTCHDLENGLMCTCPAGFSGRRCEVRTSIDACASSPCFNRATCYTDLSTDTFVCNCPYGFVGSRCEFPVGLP

MFI [1]: 109 MFI
MFI [2]: 625
MFI [3]: 208 MFI
MFI [4]: 784
MFI [5]: 25900 MFI
MFI [6]: 14000 MFI
MFI [7]: 580
MFI [8]: 2190 MFI
MFI [9]: 268 MFI
MFI [10]: 215 MFI
MFI [11]: 32800 MFI
MFI at 0.00128 nM [12]: 90 MFI
MFI at 0.0064 nM [12]: 94 MFI
MFI at 0.032 nM [12]: 116 MFI
MFI at 0.16 nM [12]: 192 MFI
MFI at 0.8 nM [12]: 403 MFI
MFI at 4 nM [12]: 628 MFI
MFI at 20 nM [12]: 818 MFI
MFI at 100 nM [12]: 1120 MFI
Kd [13]: 0.0772 nM
koff [13]: 7.84e-05 s⁻¹
kon [13]: 1.02e+06 M⁻¹ s⁻¹
MFI [14]: 204
MFI [15]: 1100
MFI [16]: 311 MFI
MFI [17]: 355 MFI
MFI [18]: 306 MFI
MFI [19]: 15100 MFI
MFI [20]: 122 MFI
MFI [21]: 9190 MFI
MFI [22]: 306 MFI
Emax of OD450 nm binding value [23]: 0.1 OD450 nm
MFI [24]: 110
MFI [25]: 130
MFI [26]: 148 MFI
MFI [27]: 692 MFI
MFI [28]: 31500 MFI
MFI [29]: 698 MFI
MFI [30]: 221 MFI
MFI [31]: 2130 MFI
MFI [32]: 16000 MFI
MFI [33]: 419
Emax of OD450 nm binding value [34]: 0.13 OD450 nm
MFI [35]: 9960 MFI
MFI [36]: 389 MFI
B1: Hab014VL1VH2-hFc (scFv, part only; not given: VL-VH linker and human IgG1 Fc, V domains shown, not shown: another chain or arm of the molecule; a dimerising Fc or GST; small tags and cut ends)
VL: DIQMTQSPSSLSASVGDRVTITCKASEDIYNRLAWYQQKPGKVPKLLISGATSLETGVPSRFSGSGSGTDFTLTISSLQPEDVATYYCQQYWSLPWTFGGGTKVEIK
VH: EVQLVQSGAEVKKPGASVKVSCKASGYTFTDYYMNWVRQAPGQRLEWMGDINPNHGDTGYNQKFTGRVTLTVDKSASTAYMELSSLRSEDTAVYYCARNFFYYGTTYGWYFDVWGQGTTVTVSS

MFI [1]: 121 MFI
MFI [2]: 827
MFI [3]: 390 MFI
MFI [4]: 937
MFI [5]: 6080 MFI
MFI [6]: 9720 MFI
MFI [7]: 755
MFI [8]: 1150 MFI
MFI [9]: 870 MFI
MFI [10]: 125 MFI
MFI [11]: 6850 MFI
MFI at 0.00128 nM [12]: 101 MFI
MFI at 0.0064 nM [12]: 117 MFI
MFI at 0.032 nM [12]: 171 MFI
MFI at 0.16 nM [12]: 362 MFI
MFI at 0.8 nM [12]: 663 MFI
MFI at 4 nM [12]: 726 MFI
MFI at 20 nM [12]: 770 MFI
MFI at 100 nM [12]: 1090 MFI
MFI [14]: 216
MFI [15]: 1220
MFI [16]: 1230 MFI
MFI [17]: 1410 MFI
MFI [18]: 153 MFI
MFI [19]: 10900 MFI
MFI [20]: 131 MFI
MFI [21]: 3960 MFI
MFI [22]: 169 MFI
Emax of OD450 nm binding value [23]: 0.71 OD450 nm
MFI [24]: 117
MFI [25]: 127
MFI [26]: 185 MFI
MFI [27]: 371 MFI
MFI [28]: 6530 MFI
MFI [29]: 294 MFI
MFI [30]: 122 MFI
MFI [31]: 883 MFI
MFI [32]: 11300 MFI
MFI [33]: 430
Emax of OD450 nm binding value [34]: 0.82 OD450 nm
MFI [35]: 4080 MFI
MFI [36]: 1530 MFI
B2: Hab015VL5VH6a-hFc (scFv, part only; not given: scFv linker and human IgG1 Fc, V domains shown, not shown: another chain or arm of the molecule; a dimerising Fc or GST; small tags and cut ends)
VL: NIQMTQSPSSLSASVGDRVTITCKASENVGTYVSWYQQKPGKSPKLLIYGASNRYTGVPSRFSGSGSGTDFTLTISSLQPEDFATYYCGQFYSFPSTFGGGTKVEIK
VH: EVQLVESGGGLVKPGGSLRLSCAASGITFSNFWMNWVRQAPEKGLEWVGQIRLKSDDYATHYAESVKGRFTISREDSKNTVYLQMNSLKTEDTAVYYCTTGYYFDYWGQGTTVTVSS
